From US20200255508A1 (AbbVie / Abbott, published 2020) come the findings set out here.

Read-outs that look alike come from different tables or passages of the source.

Assay [1] addresses T1, human DLL4 extracellular domain (human, UniProt Q9NR61 27-529).
T1 construct: extracellular domain; coated on plates in the sVEGFR1 assay; also called huDLL4 ECD; Human DLL4 ECD
Kind of assay: Biacore SPR.
Method: (§1) Binding of DLL4 antibodies to a purified recombinant DLL4 extracellular domain is determined by surface plasmon resonance-based measurements with a Biacore® instrument (either a Biacore 2000, Biacore 3000, or Biacore T100, GE Healthcare, Piscataway, N.J. US) using running buffer HBS-EPB (10 mM HEPES [pH 7.4], 150 mM NaCl, 3 mM EDTA, 0.1 mg/ml BSA and 0.005% surfactant P20) at 25° C. For example, approximately 9000 RU of goat anti-human Fc specific polyclonal antibody (Thermo Fisher Scientific Inc., Rockford, Ill., US) diluted in 10 mM sodium acetate (pH 4.5) is directly immobilized across a CM5 research grade biosensor chip using a standard amine coupling kit according to manufacturer's instructions and procedures at 25 μg/ml. Unreacted moieties on the biosensor surface are blocked with ethanolamine. For kinetic analysis, rate equations derived from the 1:1 Langmuir binding model are fitted simultaneously to multiple antigen injections (using global fit analysis) with the use of Scrubber 2 (BioLogic Software). […] The equilibrium dissociation constant KD (M) of the reaction between antibodies and the target antigen is then calculated from the kinetic rate constants by the following formula: KD=Koff/Kₒₙ. Binding is recorded as a function of time and kinetic rate constants are calculated. In this assay, on-rates as fast as 10⁶ M⁻¹s⁻¹ and off-rates as slow as 10⁻⁶ s⁻¹ can be measured.

For assay [2], the target named is T2, mouse DLL4 extracellular domain (mouse, UniProt Q9JI71 27-532).
T2 construct: extracellular domain; also called muDLL4 ECD; Mouse DLL4 ECD
Kind of assay: Biacore SPR. (In SPR one partner is held on a chip, and binding of the other changes the refractive index at the surface.)
Method: as §1

In assay [3] the target is T3, rat DLL4 extracellular domain (rat, UniProt D3ZHH1 28-530).
T3 construct: extracellular domain; also called ratDLL4 ECD
In words: Biacore SPR.
Method: as §1

Assay [4] deals with T1, human DLL4 extracellular domain. Kind of assay: capture ELISA.
Method: (§2) ELISA plates were washed 3 times with wash buffer (PBS, 0.05% Tween-20) and then blocked with 200 ml/well blocking buffer (D-PBS, 1% BSA, 1 mM CaCl₂, 0.05% Tween-20) for 1 hour at 25° C. Plates were washed 3 times and incubated with 100 μl/well DLL4 antibodies (0.0001-100 nM, 10-fold serial dilution in blocking buffer) for 1 hour at 25° C., and then washed again 3 times. […] The reaction was stopped after 2 minutes at 25° C. with 100 μl/well 2 N H2SO₄ and the absorbance was read at 450 nm. Data were analyzed using Graphpad Prism software and EC₅₀ values were reported.
Assay [5] concerns the target T2, mouse DLL4 extracellular domain. In words: capture ELISA. Background: ELISA stands for enzyme-linked immunosorbent assay.
Method: as §2
In assay [6] the target is T4, human DLL4 on the cell surface (human, UniProt Q9NR61 27-685).
T4 construct: whole, on cells; also called HEK293-hDLL4; hDLL4-293G
In words: FACS on DLL4 cells.
Method: (§3) Stable cell lines overexpressing cell-surface DLL4 were harvested from tissue culture flasks, washed four times and resuspended in phosphate buffered saline (PBS) containing 1% bovine serum albumin and 1 mM CaCl₂ (FACS buffer), 1.5×10³ cells were incubated with antibodies at various concentrations in FACS buffer for 60 minutes on ice. Cells were washed twice and 50 μL of R-phycoerythrin-conjugated anti-rat IgG. […] Following an incubation on ice (4° C., 60 minutes), cells were washed three times and resuspended in FACS buffer. Fluorescence was measured using a Becton Dickinson FACSCalibur-HTS (Becton Dickinson, San Jose. Calif., US). Data were analyzed using Graphpad Prism software and EC₅₀ values were reported as the concentration of antibody to achieve 50% of maximal DLL4 antibodies binding to DLL4 expressing cells.

The target in assay [7] is T5, mouse DLL4 on the cell surface (mouse, UniProt Q9JI71 27-686).
T5 construct: whole, on cells; also called HEK293-mDLL4; mDLL4-293G
Kind of assay: FACS on DLL4 cells.
Method: as §3

In assay [8] the target is T1, human DLL4 extracellular domain. In words: cell-based or functional assay.
Assay [9] addresses T2, mouse DLL4 extracellular domain. In words: cell-based or functional assay.
The target in assay [10] is T4, human DLL4 on the cell surface. In words: cell-based or functional assay.
Assay [11] has the same target. Kind of assay: competition FACS, competitor huNotch-1.
Method: (§4) Notch blocking assay: Briefly, stable cell lines overexpressing cell-surface DLL4 were harvested from tissue culture flasks and re-suspended in phosphate buffered saline (PBS) containing 1% bovine serum albumin and 1 mM CaCl₂ (FACS buffer). HEK293-hDLL4 or HEK293-mDLL4 cells were dispensed into 96-well plate (v-bottom) at 1.5×10⁵ cells/well in FACS buffer. […] After washing the cells two times with FACS buffer, 50 μL of R-phycoerythrin-conjugated streptavidin (1:150 dilution in FACS buffer) (Jackson ImmunoResearch, West Grove, Pa., US, catalog no. 016-110-084) were added. Following an incubation on ice (4° C., 60 minutes), cells were washed three times and resuspended in FACS buffer. Fluorescence was measured using a Becton Dickinson FACSCalibur-HTS (Becton Dickinson, San Jose. Calif.).
In assay [12] the target is T5, mouse DLL4 on the cell surface. Kind of assay: competition FACS, competitor huNotch-1.
Method: as §4
In assay [13] the target is T1, human DLL4 extracellular domain. In words: competition ELISA, competitor huNotch-1.
Method: (§5) Plates were then washed 3 times with wash buffer (PBS, 0.05% Tween-20) and blocked with 200 μl/well blocking buffer (D-PBS, 1% BSA, 1 mM CaCl₂, 0.05% Tween-20) for 1 hour at 25° C. […] Assay plates were washed after blocking, and incubated with DLL4/antibody mixtures (100 μl/well, 1 hour at 25° C. with shaking). […] After a final wash, plates were developed using 100 μl/well substrate (TMB Sigma # T8665), and the reaction was stopped after an 8-minute incubation at 25° C. (for muDLL4 ELISA) and after 20 minute incubation at 25° C. (for huDLL4 ELISA) using 100 μl/well 1N HCl, and the absorbance was read at 450 nm.
The target of assay [14] is T2, mouse DLL4 extracellular domain. In words: competition ELISA, competitor huNotch-1.
Method: as §5
In assay [15] the target is T1, human DLL4 extracellular domain. In words: Biacore SPR. This is another data set of the same source.
Method: (§6) The BIACORE® surface plasmon resonance assay (Biacore, Inc., Piscataway, N.J., US) determines the affinity of antibodies with kinetic measurements of on-rate and off-rate constants. Binding of DLL4 antibodies to a purified recombinant DLL4 extracellular domain is determined by surface plasmon resonance-based measurements with a Biacore® instrument (either a Biacore 2000, Biacore 3000, or Biacore T100, GE Healthcare, Piscataway, N.J. US) using running buffer HBS-EPB (10 mM HEPES [pH 7.4], 150 mM NaCl, 3 mM EDTA, 0.1 mg/ml BSA and 0.005% surfactant P20) at 25° C. For example, approximately 9000 RU of goat anti-human Fc specific polyclonal antibody (Thermo Fisher Scientific Inc., Rockford, Ill., US) diluted in 10 mM sodium acetate (pH 4.5) is directly immobilized across a CM5 research grade biosensor chip using a standard amine coupling kit according to manufacturer's instructions and procedures at 25 μg/ml. Unreacted moieties on the biosensor surface are blocked with ethanolamine. For kinetic analysis, rate equations derived from the 1:1 Langmuir binding model are fitted simultaneously to multiple antigen injections (using global fit analysis) with the use of Scrubber 2 (BioLogic Software). […] The equilibrium dissociation constant KD (M) of the reaction between antibodies and the target antigen is then calculated from the kinetic rate constants by the following formula: KD=Koff/Kₒₙ. Binding is recorded as a function of time and kinetic rate constants are calculated. In this assay, on-rates as fast as 10⁶ M⁻¹s⁻¹ and off-rates as slow as 10⁻⁶ s⁻¹ can be measured.
Assay [16] addresses T2, mouse DLL4 extracellular domain. Kind of assay: Biacore SPR. This is another data set of the same source.
Method: as §6
The target of assay [17] is T1, human DLL4 extracellular domain. In words: Biacore SPR. This is another data set of the same source.
Method: as §6
Assay [18] has as its target T2, mouse DLL4 extracellular domain. Kind of assay: Biacore SPR. The source holds these as a separate data set.
Method: as §6
Assay [19] addresses T6, human DLL4-his (human, UniProt Q9NR61 27-529).
T6 construct: extracellular domain
Kind of assay: ELISA on DLL4-his.
Method: (§7) After the final wash, plates were incubated with 100 μl/well ELISA substrate (Sigma # T8665). The reaction was stopped after 8 minutes at 25° C. with 100 μl/well 1N HCl and the absorbance was read at 450 nm. Data were analyzed using Graphpad Prism software and EC50 values were reported.

In assay [20] the target is T7, mouse DLL4-his (mouse, UniProt Q9JI71 27-532).
T7 construct: extracellular domain; not shown: his tag
Kind of assay: ELISA on DLL4-his.

For assay [21], the target named is T6, human DLL4-his. In words: ELISA on DLL4-his. The source holds these as a separate data set.
Method: as §7
The target in assay [22] is T7, mouse DLL4-his. Kind of assay: ELISA on DLL4-his. The source holds these as a separate data set.
Method: as §7
Assay [23] has as its target T4, human DLL4 on the cell surface. Kind of assay: FACS on DLL4 cells. The source holds these as a separate data set.
Method: as §3
Assay [24] has the same target. Kind of assay: FACS on DLL4 cells. This is another data set of the same source.
Method: as §3
For assay [25], the target named is T5, mouse DLL4 on the cell surface. In words: FACS on DLL4 cells. This is another data set of the same source.
Method: as §3
Assay [26] has the same target. In words: FACS on DLL4 cells (*historic data).
Assay [27] concerns the target T4, human DLL4 on the cell surface. Kind of assay: competition FACS, competitor huNotch-1. The source holds these as a separate data set.
Method: as §4
In assay [28] the target is T5, mouse DLL4 on the cell surface. Kind of assay: competition FACS, competitor huNotch-1. The source holds these as a separate data set.
Method: as §4
Assay [29] deals with T4, human DLL4 on the cell surface. Kind of assay: competition FACS, competitor huNotch-1. This is another data set of the same source.
Method: as §4
Assay [30] addresses T5, mouse DLL4 on the cell surface. In words: competition FACS, competitor huNotch-1. This is another data set of the same source.
Method: as §4
For assay [31], the target named is T1, human DLL4 extracellular domain. In words: competition ELISA, competitor huNotch-1. This is another data set of the same source.
Method: as §5
For assay [32], the target named is T2, mouse DLL4 extracellular domain. In words: competition ELISA, competitor huNotch-1. The source holds these as a separate data set.
Method: as §5
For assay [33], the target named is T1, human DLL4 extracellular domain. In words: competition ELISA, competitor huNotch-1. This is another data set of the same source.
Method: as §5
Assay [34] addresses T2, mouse DLL4 extracellular domain. Kind of assay: competition ELISA, competitor huNotch-1. The source holds these as a separate data set.
Method: as §5
The target of assay [35] is T1, human DLL4 extracellular domain. In words: Biacore SPR. The source holds these as a separate data set.
Method: as §1
The target of assay [36] is T2, mouse DLL4 extracellular domain. Kind of assay: Biacore SPR. This is another data set of the same source.
Method: as §1
Assay [37] has as its target T4, human DLL4 on the cell surface. In words: FACS on DLL4 cells. The source holds these as a separate data set.
The target is the same in assay [38]. Kind of assay: competition FACS, competitor huNotch-1. This is another data set of the same source.
Method: as §4
In assay [39] the target is T5, mouse DLL4 on the cell surface. In words: competition FACS, competitor huNotch-1; competition FACS, huNotch-1/DLL4 cells (IC50).
Method: as §4

T2 sequence (Q9JI71 27-532): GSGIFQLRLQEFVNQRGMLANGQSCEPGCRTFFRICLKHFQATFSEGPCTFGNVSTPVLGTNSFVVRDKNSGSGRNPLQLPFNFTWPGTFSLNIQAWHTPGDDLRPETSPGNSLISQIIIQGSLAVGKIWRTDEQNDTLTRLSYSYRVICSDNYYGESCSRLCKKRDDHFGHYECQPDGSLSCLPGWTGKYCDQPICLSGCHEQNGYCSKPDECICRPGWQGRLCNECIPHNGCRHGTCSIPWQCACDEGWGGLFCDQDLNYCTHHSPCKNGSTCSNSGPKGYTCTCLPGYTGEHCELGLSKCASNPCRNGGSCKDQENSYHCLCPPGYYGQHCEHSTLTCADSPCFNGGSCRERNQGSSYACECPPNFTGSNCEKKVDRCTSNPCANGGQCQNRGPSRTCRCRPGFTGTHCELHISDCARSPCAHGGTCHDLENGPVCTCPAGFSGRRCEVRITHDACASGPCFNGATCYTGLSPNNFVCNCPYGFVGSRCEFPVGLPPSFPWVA
T5 sequence (Q9JI71 27-686): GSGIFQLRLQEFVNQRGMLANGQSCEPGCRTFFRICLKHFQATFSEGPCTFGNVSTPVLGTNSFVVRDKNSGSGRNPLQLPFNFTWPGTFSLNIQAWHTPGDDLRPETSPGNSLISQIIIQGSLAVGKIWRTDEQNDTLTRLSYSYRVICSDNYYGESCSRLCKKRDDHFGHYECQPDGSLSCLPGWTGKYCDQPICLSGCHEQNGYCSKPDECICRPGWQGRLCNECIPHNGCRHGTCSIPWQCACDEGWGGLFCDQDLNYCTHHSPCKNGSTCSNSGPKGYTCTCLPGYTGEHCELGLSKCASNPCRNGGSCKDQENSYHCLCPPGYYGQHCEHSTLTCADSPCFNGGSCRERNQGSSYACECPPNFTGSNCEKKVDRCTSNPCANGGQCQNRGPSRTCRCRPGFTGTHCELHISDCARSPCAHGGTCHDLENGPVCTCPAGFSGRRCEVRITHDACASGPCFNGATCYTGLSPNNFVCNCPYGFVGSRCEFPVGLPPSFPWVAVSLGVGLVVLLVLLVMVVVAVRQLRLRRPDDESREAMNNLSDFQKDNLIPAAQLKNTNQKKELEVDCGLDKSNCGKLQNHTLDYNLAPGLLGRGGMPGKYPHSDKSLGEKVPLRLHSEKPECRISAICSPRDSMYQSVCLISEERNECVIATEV
T3 sequence (D3ZHH1 28-530): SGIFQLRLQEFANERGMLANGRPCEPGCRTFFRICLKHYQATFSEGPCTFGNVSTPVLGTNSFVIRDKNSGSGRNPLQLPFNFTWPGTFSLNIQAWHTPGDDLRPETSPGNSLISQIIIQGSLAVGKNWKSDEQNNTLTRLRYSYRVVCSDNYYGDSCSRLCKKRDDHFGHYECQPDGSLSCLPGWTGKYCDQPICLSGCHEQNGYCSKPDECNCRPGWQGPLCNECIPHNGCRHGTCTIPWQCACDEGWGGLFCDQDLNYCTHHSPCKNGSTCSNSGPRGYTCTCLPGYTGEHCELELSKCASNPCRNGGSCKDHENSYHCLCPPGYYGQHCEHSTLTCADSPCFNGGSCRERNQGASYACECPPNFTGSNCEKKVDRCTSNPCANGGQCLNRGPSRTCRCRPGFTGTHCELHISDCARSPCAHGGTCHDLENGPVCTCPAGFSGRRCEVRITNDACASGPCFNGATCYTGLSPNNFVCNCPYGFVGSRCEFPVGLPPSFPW
T7 sequence (Q9JI71 27-532): as the sequence (Q9JI71 27-532) above

B1: E9 (antibody, IgG1, V domains shown)
VH: EVQLQESGPGLVKPSETLSLTCTVSGGSISSSSYYWGWIRQPPGKGLEWIGDIYYTGSTYYNPSLKSRVTISVDTSKNQFSLKLSSVTAADTAVYYCAREDVILRGGSDYWGQGTLVTVSS
VL: SYELTQPPSVSVSPGQTASITCSGQRLGDKYASWYQQKPGQSPVLVIYEDSKRPSGIPERFSGSNSGDTATLTISGTQPMDEADYYCQAWDRDTGVFGYGTRVTVL
notes: also called anti-DLL4 PROfusion antibody E9
What is called Kd is the constant that tells how readily two partners part at equilibrium. What is called koff is the rate constant with which the complex falls apart. Read a low koff as slow dissociation. The term kon denotes a measure of how fast the partners come together. A higher kon goes with fast association. In general, EC50 refers to the midpoint of the concentration-response curve. Higher therefore signals a need for much substance. As a reminder, the IC50 is the midpoint of a concentration-inhibition curve. Low values mean inhibition by little substance, high ones a need for much substance. As for B1, the Kd is 3.36 nM in assay [1], 16 nM in assay [2] and 15 nM in assay [3]. The off-rate (koff) was found to be 6.6e-05 s⁻¹ in assay [1], 0.00026 s⁻¹ in assay [2] and 0.00029 s⁻¹ in [3]. The association rate constant (kon) in assay [1] was determined as 20000 M⁻¹ s⁻¹; in [2], 18000 M⁻¹ s⁻¹; in assay [3], 19000 M⁻¹ s⁻¹. The EC50 in assay [4] was 0.17 nM; in [5] it was 0.18 nM; in assay [6], 7.23 nM; in assay [7], 0.32 nM. In addition, the “sVEGFR1 Inhibition (IC50, nM) DLL4 ECD/EaHy cells, hu” value in assay [8] amounted to 1 nM. Moreover, in assay [9], the “sVEGFR1 Inhibition (IC50, nM) DLL4 ECD/EaHy cells, mu” value amounted to 0.4 nM. Also, in [10], the “Inhibition of Notch activation via huDLL4 cells, coculture (IC50, nM)” value came to 6.2 nM. Besides, the 50% inhibitory concentration (IC50) in [11] worked out at 23.4 nM; in assay [12], 3.2 nM; in assay [13] it was 1.7 nM; in assay [14] it was 2.1 nM.

B2: E9.1 (antibody, human IgG1, V domains shown)
VH: EVQLQESGPGLVKPSETLSLTCTVSGGSISSSSYYWGWIRQPPGKGLEWIGDIYYTGSTYYNPSLKSRVTISVDTSKNQFSLKLSSVTAADTAVYYCAREDVILRGGSDYWGQGTLVTVSS
VL: SYELTQPPSVSVSPGQTASITCSGQRLGDKYASWYQQKPGQSPVLVIYEDSKRPSGIPERFSGSNSGDTATLTISGTQPMDEADYYCQAWDRDTGVFGYGTRVTVLG
On to B2, for which the Kd in [15] worked out at 2.38 nM; in [16], 12.8 nM; in assay [17], 0.52 nM; in assay [18], 1.1 nM; in [23], 0.35 nM; in assay [24], 3.62 nM. Further, the equilibrium dissociation constant (Kd) was determined as 1.66 nM in assay [25] and 1.6 nM in assay [26]. The EC50 worked out at 0.29 nM with human DLL4-his [19], 0.34 nM with mouse DLL4-his [20], 0.03 nM with human DLL4-his [21] and 0.04 nM in the assay with mouse DLL4-his [22]. In addition, the IC50 in assay [27] is 4.55 nM; in assay [28], 1.02 nM; in [29] it was 1.62 nM; in assay [30], 1.06 nM; in [31] it was 2.5 nM; in [32], 2.5 nM. Further, the IC50 is 2.2 nM in assay [33] and 5.85 nM in assay [34].

B3: E9.16 (antibody, V domains shown)
VH: EVQLQESGPGLVKPSETLSLTCTVSGGSISSSSYYWGWIRQPPGKGLEWIGDIYYTGSTYYNPSLKSRVTISVDTSKNQFSLKLSSVTAADTAVYYCAREDVILRGGSDYWGQGTLVTVSS
VL: SYELTQPPSVSVSPGQTASITCSGERLGDKYVSWYQQKPGQSPVLVIYEDFKRPSGIPERFSGSNSGDTATLTISGTQPMDEADYYCQAWDRDTGVFGYGTKVTVL
notes: also called DLL4-E9-16 hIgG1/L
B3: the values for the Kd in assay [35] and in [36] were 2.45 nM and 8.1 nM, respectively. For the same molecule, the off-rate (koff) in [35] amounted to 3.15e-05 s⁻¹; in assay [36], 0.000148 s⁻¹. Besides, the kon in assay [35] came to 12900 M⁻¹ s⁻¹; in assay [36] it was 18300 M⁻¹ s⁻¹. This molecule also gave an EC50 in assay [37] of 1.7 nM. In addition, the IC50 in assay [38] is 12.6 nM; in [39], 1.1 nM.
